The text below walks through data of the supplement of paper PMC9112550, “Optimization of the antimicrobial peptide Bac7 by deep mutational scanning” (BMC Biology, 2022).
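Further: peptides expressed intracellularly from a pBAD plasmid library in pooled LB shake-flask culture, induced with 0.3% L-arabinose, DNA abundance read by NGS, three biological replicates, DESeq2 with apeglm shrinkage.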

In this data set the test system is Escherichia coli TOP10. Kind of data set: shrunken log2 fold change of peptide-encoding DNA abundance (4.5 h post-induction vs induction); higher = less antimicrobial activity (less host growth inhibition). The note with it: time post-induction: 4.5 h; library: site-saturation at positions 5, 18, 19, 20.
Consider RRIRLRPPRLPRPRPRPMRVPRP, for which the “shrunken log2 fold change” value was determined as 0.115.

As for RRIRQRPPRLPRPRPRPHKYPRP, the “shrunken log2 fold change” value was -1.21. For the sequence RRIRWRPPRLPRPRPRPEKLPRP, the “shrunken log2 fold change” value was 0.225. The figure for RRIRCRPPRLPRPRPRPNKWPRP is -0.00442; for RRIRGRPPRLPRPRPRPWYRPRP it is -0.19.

Regarding RRIRSRPPRLPRPRPRPMFCPRP, the “shrunken log2 fold change” value is -0.285. For the sequence RRIRKRPPRLPRPRPRPCRTPRP, the “shrunken log2 fold change” value was 0.0438. Under RRIRVRPPRLPRPRPRPDLFPRP stands -0.045. Under RRIRTRPPRLPRPRPRPRQYPRP stands -0.302; under RRIRARPPRLPRPRPRPYAYPRP, 0.104.

For the sequence RRIRARPPRLPRPRPRPTDGPRP, the “shrunken log2 fold change” value came out at 0.0971. Turning to RRIRVRPPRLPRPRPRPGNTPRP, the “shrunken log2 fold change” value was -0.113.

On to RRIRHRPPRLPRPRPRPYYLPRP, for which the “shrunken log2 fold change” value was -0.72. The figure for RRIRQRPPRLPRPRPRPSTCPRP is -0.0113. The figure for RRIRTRPPRLPRPRPRPDAQPRP is 0.193. Under RRIRRRPPRLPRPRPRPWQEPRP stands 0.00489; under RRIRERPPRLPRPRPRPKCHPRP, -0.428. With RRIRFRPPRLPRPRPRPAMYPRP, the “shrunken log2 fold change” value is -0.246. Under RRIRPRPPRLPRPRPRPLILPRP stands -0.559; under RRIRMRPPRLPRPRPRPWYIPRP, -0.167; under RRIRMRPPRLPRPRPRPKKDPRP, 0.942.

In the case of RRIRFRPPRLPRPRPRPHRVPRP, the “shrunken log2 fold change” value was -0.137. Under RRIRCRPPRLPRPRPRPVQVPRP stands -0.164; under RRIRTRPPRLPRPRPRPPDYPRP, -0.0981; under RRIRYRPPRLPRPRPRPWTKPRP, -0.319. The figure for RRIRYRPPRLPRPRPRPSFDPRP is -1.2; for RRIRRRPPRLPRPRPRPDHQPRP it is -0.18; for RRIRRRPPRLPRPRPRPCIPPRP it is -0.867. The figure for RRIRCRPPRLPRPRPRPKECPRP is 0.103. In the case of RRIRLRPPRLPRPRPRPKRAPRP, the “shrunken log2 fold change” value was 0.203.

As for RRIRNRPPRLPRPRPRPSDFPRP, the “shrunken log2 fold change” value was -0.00477. Under RRIRDRPPRLPRPRPRPCRTPRP stands -0.173.

For RRIRVRPPRLPRPRPRPMYLPRP, the “shrunken log2 fold change” value was -0.0313. The figure for RRIRDRPPRLPRPRPRPHCWPRP is 0.15; for RRIRRRPPRLPRPRPRPVYKPRP it is 0.0922; for RRIRQRPPRLPRPRPRPPYHPRP it is -0.208. Under RRIRQRPPRLPRPRPRPQKYPRP stands -0.517; under RRIRRRPPRLPRPRPRPPAFPRP, 1.08. As to RRIRYRPPRLPRPRPRPCYDPRP, the “shrunken log2 fold change” value is -0.379. Consider RRIRKRPPRLPRPRPRPQEHPRP, for which the “shrunken log2 fold change” value stood at 0.0487. Under RRIRGRPPRLPRPRPRPEIDPRP stands 1.63; under RRIRTRPPRLPRPRPRPKYDPRP, -0.434; under RRIRKRPPRLPRPRPRPYKAPRP, -0.0235. Under RRIRPRPPRLPRPRPRPGELPRP stands 0.192.

Regarding RRIRTRPPRLPRPRPRPATWPRP, the “shrunken log2 fold change” value came to 0.164. Under RRIRQRPPRLPRPRPRPRCGPRP stands 0.236. Under RRIRWRPPRLPRPRPRPSHVPRP stands -0.167; under RRIRWRPPRLPRPRPRPCLGPRP, 0.0309; under RRIRYRPPRLPRPRPRPRNTPRP, -0.503. Under RRIRARPPRLPRPRPRPWYWPRP stands 0.0283. On to RRIRLRPPRLPRPRPRPMAKPRP, for which the “shrunken log2 fold change” value was 0.109.

As for RRIRHRPPRLPRPRPRPYWEPRP, the “shrunken log2 fold change” value was -0.238.

As for RRIRMRPPRLPRPRPRPGECPRP, the “shrunken log2 fold change” value is -0.0159. Under RRIRHRPPRLPRPRPRPGRFPRP stands 0.314; under RRIRERPPRLPRPRPRPKCAPRP, 0.0581; under RRIRRRPPRLPRPRPRPCHVPRP, -0.238. Regarding RRIRQRPPRLPRPRPRPIMFPRP, the “shrunken log2 fold change” value was -0.144. The figure for RRIRTRPPRLPRPRPRPDAKPRP is 0.395; for RRIRFRPPRLPRPRPRPWCFPRP it is -0.282; for RRIRVRPPRLPRPRPRPGWTPRP it is 0.202.

For the sequence RRIRDRPPRLPRPRPRPFFCPRP, the “shrunken log2 fold change” value is 0.55.

In the case of RRIRHRPPRLPRPRPRPIAHPRP, the “shrunken log2 fold change” value is 0.0481. The figure for RRIRSRPPRLPRPRPRPCKFPRP is -0.301.

Take RRIRHRPPRLPRPRPRPIPEPRP: the “shrunken log2 fold change” value was -0.16. Under RRIRCRPPRLPRPRPRPFYGPRP stands -0.262. Under RRIRSRPPRLPRPRPRPVYQPRP stands -1.16. Under RRIRWRPPRLPRPRPRPRWVPRP stands 0.454; under RRIRARPPRLPRPRPRPYHWPRP, -0.0767. For RRIRARPPRLPRPRPRPAQGPRP, the “shrunken log2 fold change” value came to 0.373.

Take RRIRWRPPRLPRPRPRPNHVPRP: the “shrunken log2 fold change” value is -0.651.

For the sequence RRIRPRPPRLPRPRPRPPCPPRP, the “shrunken log2 fold change” value is 0.294. Under RRIRLRPPRLPRPRPRPKLEPRP stands -0.354; under RRIRRRPPRLPRPRPRPHQYPRP, 2.56. Take RRIRRRPPRLPRPRPRPTGWPRP: the “shrunken log2 fold change” value turned out to be 0.766.

For RRIRWRPPRLPRPRPRPVVGPRP, the “shrunken log2 fold change” value was determined as 0.738. Under RRIRPRPPRLPRPRPRPTLIPRP stands -0.169.

On to RRIRSRPPRLPRPRPRPASLPRP, for which the “shrunken log2 fold change” value was -0.0507. For the sequence RRIRKRPPRLPRPRPRPDFNPRP, the “shrunken log2 fold change” value came out at 0.0068. Under RRIRQRPPRLPRPRPRPYFKPRP stands -0.454; under RRIRPRPPRLPRPRPRPWNQPRP, -0.759; under RRIRFRPPRLPRPRPRPMNQPRP, -0.528. The figure for RRIRHRPPRLPRPRPRPRHEPRP is 0.099; for RRIRKRPPRLPRPRPRPCVDPRP it is 0.268; for RRIRRRPPRLPRPRPRPSDDPRP it is 0.209. Under RRIRLRPPRLPRPRPRPSVRPRP stands 0.0468; under RRIRCRPPRLPRPRPRPHQVPRP, -0.288. For RRIRKRPPRLPRPRPRPYFEPRP, the “shrunken log2 fold change” value is -0.584.

As for RRIRIRPPRLPRPRPRPCCFPRP, the “shrunken log2 fold change” value is -0.725. Under RRIRFRPPRLPRPRPRPLGGPRP stands -0.235; under RRIRLRPPRLPRPRPRPVHNPRP, -0.281; under RRIRQRPPRLPRPRPRPPYRPRP, 0.158.

On to RRIRERPPRLPRPRPRPKWFPRP, for which the “shrunken log2 fold change” value is -0.0144. As for RRIRKRPPRLPRPRPRPSHRPRP, the “shrunken log2 fold change” value is -0.0303. The figure for RRIRERPPRLPRPRPRPVQFPRP is -0.0474; for RRIRYRPPRLPRPRPRPIHFPRP it is -0.679.

Turning to RRIRDRPPRLPRPRPRPHRQPRP, the “shrunken log2 fold change” value is -0.0279. Under RRIRPRPPRLPRPRPRPYACPRP stands -0.921; under RRIRARPPRLPRPRPRPSYIPRP, -0.647.

RRIRKRPPRLPRPRPRPWDWPRP: the “shrunken log2 fold change” value was determined as 0.504. Under RRIRSRPPRLPRPRPRPWNDPRP stands -0.303; under RRIRYRPPRLPRPRPRPNTFPRP, -1.24; under RRIRKRPPRLPRPRPRPFWIPRP, -0.414. The figure for RRIRHRPPRLPRPRPRPGTVPRP is -0.139.

As for RRIRGRPPRLPRPRPRPPMIPRP, the “shrunken log2 fold change” value was -0.0528. Under RRIRIRPPRLPRPRPRPCFVPRP stands -0.422.

On to RRIRGRPPRLPRPRPRPETAPRP, for which the “shrunken log2 fold change” value was determined as 1.76. The figure for RRIRWRPPRLPRPRPRPASTPRP is 0.349; for RRIRNRPPRLPRPRPRPNLDPRP it is -0.136. The figure for RRIRKRPPRLPRPRPRPNQLPRP is -0.33. The figure for RRIRERPPRLPRPRPRPDPLPRP is 0.00979; for RRIRWRPPRLPRPRPRPWMWPRP it is 0.0359.

For RRIRVRPPRLPRPRPRPMPAPRP, the “shrunken log2 fold change” value amounted to 0.149. The figure for RRIRIRPPRLPRPRPRPQYAPRP is 0.0303; for RRIRTRPPRLPRPRPRPSIPPRP it is -0.356. The figure for RRIRARPPRLPRPRPRPEDEPRP is 0.182. For RRIRLRPPRLPRPRPRPSNLPRP, the “shrunken log2 fold change” value was -0.181. The figure for RRIRYRPPRLPRPRPRPPQPPRP is 0.436; for RRIRCRPPRLPRPRPRPGRVPRP it is 0.288. Under RRIRNRPPRLPRPRPRPFHHPRP stands -0.27.

Turning to RRIRYRPPRLPRPRPRPWLAPRP, the “shrunken log2 fold change” value turned out to be 0.00503. For RRIRCRPPRLPRPRPRPQAHPRP, the “shrunken log2 fold change” value was -0.132. On to RRIRHRPPRLPRPRPRPGLKPRP, for which the “shrunken log2 fold change” value came out at 0.182. The figure for RRIRCRPPRLPRPRPRPCATPRP is 0.16. As for RRIRNRPPRLPRPRPRPPYAPRP, the “shrunken log2 fold change” value worked out at 0.161. The figure for RRIRFRPPRLPRPRPRPNIQPRP is -0.973.
